This passage reports Kd, ka1 and kd1 results from publication PMC11222974, “The effect of ADAMTS13 on graft‐versus‐host disease” (Journal of Cellular and Molecular Medicine, 2024).

The target of one assay is integrin αL chain (UniProt P20701). In words: SPR; Biacore 3000, 25°C; integrin αL amine-coupled to CM5 (~500 RU), soluble VWF or VWF-A2 flowed over at 30 μL/min in TBSTG (25 mM Tris pH 7.5, 150 mM NaCl, 0.05% Tween, 2% glycerol); apparent. Background: In SPR one partner is held on a chip, and binding of the other changes the refractive index at the surface.
Assay [1] concerns the target T1, factor VIII‐free Von Willebrand factor (human, UniProt P04275 764-2813).
T1 construct: Von Willebrand factor, human, factor VIII-free; multimeric; molar concentration counted with a monomeric MW of 260 kDa; Multimeric protein; On the SPR chip it was treated with 10 mM TCEP after coupling; also called VWF; recombinant human factor VIII‐free VWF; source: bought: Haematologic Technologies / Prolytix, catalogue HCVWF‐0191
In words: SPR; Biacore 3000, 25°C; factor VIII-free VWF amine-coupled to CM5 (~3000 RU after TCEP), αL flowed over at 30 μL/min in TBSTG (25 mM Tris pH 7.5, 150 mM NaCl, 0.05% Tween, 2% glycerol); two-state binding model; apparent. The conditions noted are these: both partners purified.

With “recombinant VWF‐A2 protein (domain or fragment)”, in the assay with integrin αL chain, the Kd was 94 nM, the ka1 was determined as 140000 M⁻¹ s⁻¹ and the kd1 came to 0.013 s⁻¹.

B1: integrin αL chain (receptor, UniProt P20701 26-1090, looked up)
chain: YNLDVRGARSFSPPRAGRHFGYRVLQVGNGVIVGAPGEGNSTGSLYQCQSGTGHCLPVTLRGSNYTSKYLGMTLATDPTDGSILACDPGLSRTCDQNTYLSGLCYLFRQNLQGPMLQGRPGFQECIKGNVDLVFLFDGSMSLQPDEFQKILDFMKDVMKKLSNTSYQFAAVQFSTSYKTEFDFSDYVKRKDPDALLKHVKHMLLLTNTFGAINYVATEVFREELGARPDATKVLIIITDGEATDSGNIDAAKDIIRYIIGIGKHFQTKESQETLHKFASKPASEFVKILDTFEKLKDLFTELQKKIYVIEGTSKQDLTSFNMELSSSGISADLSRGHAVVGAVGAKDWAGGFLDLKADLQDDTFIGNEPLTPEVRAGYLGYTVTWLPSRQKTSLLASGAPRYQHMGRVLLFQEPQGGGHWSQVQTIHGTQIGSYFGGELCGVDVDQDGETELLLIGAPLFYGEQRGGRVFIYQRRQLGFEEVSELQGDPGYPLGRFGEAITALTDINGDGLVDVAVGAPLEEQGAVYIFNGRHGGLSPQPSQRIEGTQVLSGIQWFGRSIHGVKDLEGDGLADVAVGAESQMIVLSSRPVVDMVTLMSFSPAEIPVHEVECSYSTSNKMKEGVNITICFQIKSLIPQFQGRLVANLTYTLQLDGHRTRRRGLFPGGRHELRRNIAVTTSMSCTDFSFHFPVCVQDLISPINVSLNFSLWEEEGTPRDQRAQGKDIPPILRPSLHSETWEIPFEKNCGEDKKCEANLRVSFSPARSRALRLTAFASLSVELSLSNLEEDAYWVQLDLHFPPGLSFRKVEMLKPHSQIPVSCEELPEESRLLSRALSCNVSSPIFKAGHSVALQMMFNTLVNSSWGDSVELHANVTCNNEDSDLLEDNSATTIIPILYPINILIQDQEDSTLYVSFTPKGPKIHQVKHMYQVRIQPSIHDHNIPTLEAVVGVPQPPSEGPITHQWSVQMEPPVPCHYEDLERLPDAAEPCLPGALFRCPVVFRQEILVQVIGTLELVGEIEASSMFSLCSSLSISFNSSKHFHLYGSNASLAQVVMKVDVVYEKQML
notes: integrin αL chain (CD11a), recombinant, Origene TP321297; αL chain alone, without β2, in the SPR experiments; In the functional rows this molecule stands for αLβ2 on Jurkat cells; also called aL; CD11a; source: bought: Origene, catalogue TP321297
For the molecule B1, in assay [1], the Kd was 120 nM.
